PMC9067507, “F/YGG-motif is an intrinsically disordered nucleic-acid binding motif”

Tests used:
Experiment in all cases: MST; 10 mM MgCl2; MST: 20 mM HEPES pH 7.5, 10 mM MgCl2, 0.05% Tween-20; 420 nM labelled U30 with protein titrated, or labelled peptide with RNA titrated; temperature not stated
hnRNPA2 LCD deltaNAID2 = target: T1, hnRNPA2 LCD deltaNAID2 (human, UniProt P22626 200-306, del307-353); settings: protein: recombinant; (stated for LCD only)
T1 sequence: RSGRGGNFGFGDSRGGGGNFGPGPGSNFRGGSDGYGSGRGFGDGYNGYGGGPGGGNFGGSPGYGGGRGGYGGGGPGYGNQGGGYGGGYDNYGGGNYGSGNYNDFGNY

hnRNPA2 LCD = hnRNPA2 LCD (human, UniProt P22626 200-353); settings: protein: recombinant; tags: 6xHis removed by TEV
hnRNPA2 LCD deltaNAID1 = target: T2, hnRNPA2 LCD deltaNAID1 (human, UniProt P22626 200-353, del239-306); settings: protein: recombinant; (stated for LCD only)
T2 sequence: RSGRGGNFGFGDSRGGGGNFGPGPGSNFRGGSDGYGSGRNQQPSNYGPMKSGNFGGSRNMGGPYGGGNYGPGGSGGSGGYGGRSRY

Sequence of hnRNPA2 LCD (P22626 200-353): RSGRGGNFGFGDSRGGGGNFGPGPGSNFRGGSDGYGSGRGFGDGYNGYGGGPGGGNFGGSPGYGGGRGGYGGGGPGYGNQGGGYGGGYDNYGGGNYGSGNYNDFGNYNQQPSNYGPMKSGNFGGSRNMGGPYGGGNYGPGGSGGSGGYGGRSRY

UUUUUUUUUUUUUUUUUUUUUUUUUUUUUU (ssRNA) [U30 (labelled)]
Kd (hnRNPA2 LCD deltaNAID2): 13 ± 3 µM | Kd (hnRNPA2 LCD): 0.72 ± 0.002 µM | Kd (hnRNPA2 LCD deltaNAID1): 41 ± 1.4 µM
